The results in this text go back to article PMC6072106.

Holding throughout (conditions): EMSA: 24 mM Tris/HCl pH 7.5, 50 mM KCl, 10 mM MgCl2, 1 mM CaCl2, 0.1 mM EDTA, 5% glycerol, 0.05 ug/ul BSA, 0.05 ug/ul salmon sperm DNA, 20 ul, 20 min room …
(A gel shift assay detects complexes by their altered migration in electrophoresis.)

Data set [1] deals with T1, Fis (UniProt Q88DK4).
T1 sequence: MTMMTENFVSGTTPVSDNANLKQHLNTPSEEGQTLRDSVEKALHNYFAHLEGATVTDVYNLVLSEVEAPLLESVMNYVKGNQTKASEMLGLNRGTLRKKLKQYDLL
In words: DNase I footprinting.

In data set [2] the target is T1, Fis. Description: EMSA with LF2 competition.
Data set [3] concerns the target T1, Fis. In words: EMSA.
The target of data set [4] is T1, Fis. In words: competition.

Turning to “AGGATCCAATCGCCAGATGAACTTTACAAGGCGCAGAACAGCGAAATTCGAGCGCAGCAGTGGCACCGACCTTAATTATCATTACAGGGTTTGCAATTCGTTACCCGCTGCAAGAAACATAATTAACAAAACCGCGCGTAATGCCCGAATTTCAAGGCTCTCAGCCAGTTACGAACG (double strand) [Fis-nuo3-Fis-nuo4-mut]”, the binding result in data set [1] and in data set [2] was “binds more weakly” in each case. Turning to “AGGATCCAATCGCCAGATGAACTTTACAAGGCGCAGAACAGCGAAATTCGAGCGCAGCAGTTCAAATGATATTAATTATCATTACAGGGTTTGCAATTCGTTACCCGCTGCAAGAAACATAAGTCAGCCAACCGCGCGTAATGCCCGAATTTCAAGGCTCTCAGCCAGTTACGAACG (double strand) [Fis-nuo3-mut-Fis-nuo4]”, the binding result in data set [1] and in data set [2] was “binds more weakly” throughout.

In the case of “AGGATCCAATCGCCAGATGAACTTTACAAGGCGCAGAACAGCGAAATTCGAGCGCAGCAGTTCAAATGATATTAATTATCATTACAGGGTTTGCAATTCGTTACCCGCTGCAAGAAACATAATTAACAAAACCGCGCGTAATGCCCGAATTTCAAGGCTCTCAGCCAGTTACGAACG (double strand) [nuoA promoter Fis-nuo3-Fis-nuo4 (170 bp)]”, the binding result in data set [3] and in data set [1] was “binds” each time. For the sequence “CGTGGGGTTATGCCGAGATAAGGCAAAAATTAGGACATTCGTTCTGTAAATATATGATTTAAAAGGTTATTCGAGAGGCCGTGGCTTGCTGGTCATCCACCGTCTGAGCTCAGC (double strand) [RF1]”, the binding entry in data set [4] was “no binding”.

As to “GCGCGTAATGCCCGAATTTCAAGGCTCTCAGCCAGTTACGAACGTTTGTCCTACCTAATCCTACGAATAAATTTGCGACAGAAATTTTACTTGCACCAGGTTTACCCATAAAATCAGCGCGATTGATCCGGCTGCGACATTTGGTCACTG (double strand) [Fis-nuo1-Fis-nuo2-mut]”, the binding result in data set [1] and in data set [2] was “binds more weakly” each time. For the sequence “GCGCGTAATGCCCGAATTTCAAGGCTCTCAGCCAGTTACGAACGTTTTTTGTACTTAATCCTACGAATAAATTTGCGACAGAAATTTTACTTGCACCAGGTTTACCCATAAAATCAGCGCGATTGATCCGGCTGCGACATTTGGTCACTG (double strand) [nuoA promoter Fis-nuo1-Fis-nuo2 (150 bp)]”, the binding entry in data set [3] and in data set [1] was “binds” throughout. Consider “GCGCGTAATGCCCGAATTTCAAGGCTCTCAGCCAGTTACGAACGTTTTTTGTACTTAATCCTACGAATAAGGTTGCGAGTCGAATTTTACTTGCACCAGGTTTACCCATAAAATCAGCGCGATTGATCCGGCTGCGACATTTGGTCACTG (double strand) [Fis-nuo1-mut-Fis-nuo2]”, for which, in data set [1], the binding entry was “binds more weakly”.
